Results on ten molecules are retold here after patent publication US20190038704A1 (SANFORD BURNHAM PREBYS MEDICAL DISCOVERY INSTITUTE, published 2019).

Assay [1] has as its target T1, mouse EphA4 ectodomain fused to Fc (mouse, UniProt Q03137 20-547).
T1 construct: extracellular domain; Defined as 'EphA4 Fc; also called EphA4 Fc; not shown: Fc portion
Kind of assay: competition ELISA: ephrin-A5 AP binding to immobilized EphA4 Fc. As for the experimental part: OD₄₀₅ was measured and the absorbance from wells coated with Fc was subtracted as background.

Assay [2] concerns the target EphA4 in stably transfected human embryonal kidney (HEK293) cells. Put plainly: cell-based or functional assay.

Bridge positions count the residues as written; N and C are the ends. Square brackets hold non-standard residues; d marks the D form. Ends that are not written are not given here. βAla = NCCC(=O)O

T1 sequence (Q03137 20-547): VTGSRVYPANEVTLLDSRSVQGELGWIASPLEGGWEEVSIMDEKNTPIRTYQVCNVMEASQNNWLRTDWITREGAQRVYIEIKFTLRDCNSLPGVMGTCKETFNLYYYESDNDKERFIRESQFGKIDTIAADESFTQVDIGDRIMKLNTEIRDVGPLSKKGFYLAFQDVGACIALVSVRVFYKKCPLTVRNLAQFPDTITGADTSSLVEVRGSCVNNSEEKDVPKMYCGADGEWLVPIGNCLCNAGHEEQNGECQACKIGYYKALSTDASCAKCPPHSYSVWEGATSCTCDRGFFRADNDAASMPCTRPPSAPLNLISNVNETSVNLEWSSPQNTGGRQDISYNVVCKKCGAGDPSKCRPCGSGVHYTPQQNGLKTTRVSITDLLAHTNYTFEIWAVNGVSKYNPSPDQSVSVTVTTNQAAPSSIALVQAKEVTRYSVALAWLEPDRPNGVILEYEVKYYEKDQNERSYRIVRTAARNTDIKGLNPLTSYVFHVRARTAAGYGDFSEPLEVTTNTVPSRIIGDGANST

B1: APY-Aib8.am (peptide)
peptide: APYCVYRXSWSC
modifications: aminoisobutyric acid (Aib) at position 8; C-terminal amide; disulfide bridge Cys4-Cys12
B1 came in with an IC50 in assay [1] of 2600 nM.

In assay [1], APYCVYK[βAla]SWSC-NH2 (disulfide 4-12 (inferred), also called APYCVYKβASWSC-am) [APY-Lys7-βAla8.am] had an IC50 of 68 nM.

APYCVYRGSWSC-NH2 (disulfide 4-12, C-terminally amidated APY) [APY.am]: the IC50 in assay [1] is 280 nM.

Molecule YCVYR[βAla]SWSC-NH2 (disulfide 2-10 (inferred), numbers may be shifted) [Y-βAla8.am] gave an IC50 in assay [1] of 1470 nM.

APYCVYRXSWSC (D-Ala at position 8; C-terminal amide; disulfide bridge Cys4-Cys12) [APY-DAla8.am] gave an IC50 in assay [1] of 280 nM. Compared with the last molecule, the IC50 is about 5.2-fold lower.

The molecule XPYCVYRGSWSC (D-Ala at position 1; C-terminal amide; disulfide bridge Cys4-Cys12) [DAla1-PY.am] had an IC50 in assay [1] of 1100 nM.

For the molecule KYCVYR[βAla]SWSC-NH2 (disulfide 3-11 (inferred), numbers may be shifted) [KY-βAla8.am], in assay [1], the IC50 is 260 nM.

Turning to Ac-KYCVYR[βAla]SWSC-NH2 (disulfide 3-11 (inferred), numbers may be shifted) [ac.KY-βAla8.am], the IC50 in assay [1] was 1160 nM.

In assay [1], XPYCVYRGSWSC (βAla at position 1; C-terminal amide; disulfide bridge Cys4-Cys12) [βAla1-PY.am] showed an IC50 of 680 nM.

B2: APY-βAla8.am (peptide)
peptide: APYCVYRXSWSC
modifications: βAla (3-aminopropanoic acid) at position 8; C-terminal amide; disulfide bridge Cys4-Cys12
B2: in assay [2], the “IC50 of inhibition of ephrin-A5-induced EphA4 tyrosine phosphorylation in HEK293 cells” value is approximately 300 nM.
